# Data as given in EP4792886A2, “CNP PRODRUGS” (Ascendis Pharma Growth Disorders A/S, priority 2015, dated 2016).
# Bridges are numbered along the chain shown (N, C = ends). Where no end group is shown, it is not given here. The star is where a group is joined. Hexanoyl(6-maleimido) = O=C1C=CC(=O)N1CCCCCC(=O)*
# T1: natriuretic-peptide receptor B (NPR-B) expressed endogenously on NIH-3T3 cells (Murine Embryo Fibroblast cell … (murine, UniProt Q6VVW5 17-1047))
# T1 sequence (looked up): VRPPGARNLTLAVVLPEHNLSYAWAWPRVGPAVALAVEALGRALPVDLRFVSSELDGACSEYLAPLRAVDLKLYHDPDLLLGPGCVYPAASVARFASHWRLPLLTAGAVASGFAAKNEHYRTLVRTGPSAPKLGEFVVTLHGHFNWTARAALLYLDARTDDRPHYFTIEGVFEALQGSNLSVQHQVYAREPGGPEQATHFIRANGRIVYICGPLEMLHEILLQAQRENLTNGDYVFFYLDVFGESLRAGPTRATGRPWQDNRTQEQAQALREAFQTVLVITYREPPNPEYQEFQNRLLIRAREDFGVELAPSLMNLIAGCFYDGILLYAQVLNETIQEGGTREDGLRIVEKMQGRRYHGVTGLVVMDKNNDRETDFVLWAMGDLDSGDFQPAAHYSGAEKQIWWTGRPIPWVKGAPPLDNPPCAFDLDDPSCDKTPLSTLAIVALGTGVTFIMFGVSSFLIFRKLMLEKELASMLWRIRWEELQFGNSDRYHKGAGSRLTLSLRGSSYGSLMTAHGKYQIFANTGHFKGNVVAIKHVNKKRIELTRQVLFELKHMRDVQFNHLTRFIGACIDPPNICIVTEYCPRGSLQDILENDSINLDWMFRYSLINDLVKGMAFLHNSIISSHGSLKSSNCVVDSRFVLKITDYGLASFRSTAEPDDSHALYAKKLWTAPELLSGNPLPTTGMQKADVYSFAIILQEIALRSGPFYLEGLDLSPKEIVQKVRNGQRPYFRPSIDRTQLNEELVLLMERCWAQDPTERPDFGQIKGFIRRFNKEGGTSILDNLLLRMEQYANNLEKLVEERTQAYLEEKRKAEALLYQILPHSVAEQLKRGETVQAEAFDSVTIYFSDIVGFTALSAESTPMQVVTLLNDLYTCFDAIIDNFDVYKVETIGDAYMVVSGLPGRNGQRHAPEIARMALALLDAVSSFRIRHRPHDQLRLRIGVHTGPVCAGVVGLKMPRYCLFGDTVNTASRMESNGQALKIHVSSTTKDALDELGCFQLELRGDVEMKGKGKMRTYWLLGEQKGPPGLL
# What was measured:
# [1] = target: recombinant human NEP (Homo sapiens, UniProt P08473); settings: pH 7.4
# Text: Samples were taken at different time intervals. […] The resulting reaction products were assigned using HPLC-MS.
# [2] = tested on: wild-type FVB male mice; experiment: Growth study in FVB mice after 5 weeks treatment, daily subcutaneous bolus injection or continuous subcutaneous infusion; assay type: in vivo; settings: 50 nmol/kg/d, d 35
# Protocol: This study was performed in order to test the effect of daily subcutaneous bolus injection vs. continuous subcutaneous infusion of CNP-38 on animal growth. 21- to 22-days-old wild-type FVB male mice (n = 9/group) were given 50 nmol/kg/d CNP-38 or vehicle (30 mM acetate pH 4 containing 5 % sucrose and 1 % benzylic alcohol) either by daily subcutaneous bolus injection or by continuous subcutaneous infusion in the scapular region over 35 days. Continuous infusion was applied by Alzet osmotic pumps model 1002 for week 1-2, followed by model 1004 for week 3-5. CNP-38 concentrations in the pumps were adjusted for the mean animal weight at study day 7 (pump model 1002) or study day 25 (pump model 1004). Growth was determined at d 35 by total body length measurement and X-ray measurements of the right femur and tibia.
# [3] = target: T1, natriuretic-peptide receptor B (NPR-B) …; experiment: cell-based or functional assay
# Chain of recombinant human NEP (P08473 whole entry): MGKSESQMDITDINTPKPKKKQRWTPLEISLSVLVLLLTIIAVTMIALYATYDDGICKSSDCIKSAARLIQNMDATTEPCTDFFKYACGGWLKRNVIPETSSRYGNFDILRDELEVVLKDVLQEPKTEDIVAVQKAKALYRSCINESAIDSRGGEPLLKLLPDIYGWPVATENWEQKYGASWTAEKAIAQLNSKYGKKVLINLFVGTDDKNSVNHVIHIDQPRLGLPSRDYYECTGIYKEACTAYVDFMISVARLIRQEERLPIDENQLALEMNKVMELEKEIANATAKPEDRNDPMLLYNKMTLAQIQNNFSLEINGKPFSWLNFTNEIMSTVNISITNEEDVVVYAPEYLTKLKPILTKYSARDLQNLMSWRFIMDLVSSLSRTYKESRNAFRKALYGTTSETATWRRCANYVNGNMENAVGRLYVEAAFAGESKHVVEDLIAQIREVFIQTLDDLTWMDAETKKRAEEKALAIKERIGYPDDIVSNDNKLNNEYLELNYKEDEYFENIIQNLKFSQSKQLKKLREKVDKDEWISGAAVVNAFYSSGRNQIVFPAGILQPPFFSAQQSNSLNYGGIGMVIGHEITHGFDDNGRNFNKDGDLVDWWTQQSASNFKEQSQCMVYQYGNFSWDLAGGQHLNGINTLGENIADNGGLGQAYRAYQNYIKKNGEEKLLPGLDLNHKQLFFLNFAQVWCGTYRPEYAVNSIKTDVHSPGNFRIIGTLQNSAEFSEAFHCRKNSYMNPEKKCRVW
molecule,measurement,setting,value
"CNP-38: CNP-38 SEQ ID No:24, LQEHPNARKYKGANKKGLSKGCFGLKLDRIGSMSGLGC, obtained from CASLO ApS (disulfide 22-38)",half life norm.,[1],12.10 h
same,total body lenght compared to vehicle treated animals,[2]; continuous subcutaneous infusion,121.7%
same,total body lenght compared to vehicle treated animals,[2]; daily subcutaneous bolus injection,110.2%
LQEHPNARKYKGANKKGLSKGCFGLKLDRIGSMSGLGC (5 kDa PEG stably attached at the side chain of Lys26 through a maleimido hexanoyl group; disulfide bridge between Cys22 and Cys38) [permanent Lys26 CNP-38 PEG 5 kDa conjugate 19e],"Residual Activity [%] (cGMP TR-FRET in NIH-3T3 cells, by EC50 against non-PEGylated CNP-38)",[3],< 1%
LQEHPNARKYKGANKKGLSKGCFGLKLDRIGSMSGLGC (disulfide 22-38; not fully specified (residue 26)) [permanent Lys26 CNP-38 PEG4x10 kDa conjugate 12g],"Residual Activity [%] (cGMP TR-FRET in NIH-3T3 cells, by EC50 against non-PEGylated CNP-38)",[3],< 1%
{PEG 5 kDa-Hexanoyl(6-maleimido)}-LQEHPNARKYKGANKKGLSKGCFGLKLDRIGSMSGLGC (disulfide 22-38) [permanent N-terminal CNP-38 PEG 5kDa conjugate 15e],"Residual Activity [%] (cGMP TR-FRET in NIH-3T3 cells, by EC50 against non-PEGylated CNP-38)",[3],14%
